We go through 22 variants from the supplement of paper PMC7125110.

First the molecules themselves.
B1: glmS ribozyme (parent)
chain: AUAAAAGCGCCAGAACUACAGAAAUGUAGUUGACGAGGAGGAGGUUUAUCGAAUUUUCGGCGGAUGCCUCCAAA

Conditions in all cases: with glucosamine-6-phosphate
Variants of B1 are the subject of data set [1]. Put plainly: self-cleavage kobs at 40 uM GlcN6P; higher = faster cleavage; RNA array. The method, boiled down:
(§1)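 Ribozyme variants carrying barcodes were transcribed in situ on sequenced MiSeq chips by E. coli RNA polymerase and tracked at 37 °C with a hybridised Cy3 probe. They were exposed to 40 μM to 10 mM glucosamine-6-phosphate in HEPES/KCl/Mg(OAc)2 buffer. kobs came from exponential decay fits of normalised per-tile medians, and kcat and KM from weighted Michaelis–Menten fits.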

Data set [2] covers variants of B1. Put plainly: self-cleavage kobs at 640 uM GlcN6P; higher = faster cleavage; RNA array. The method, boiled down:
as §1

Data set [3] covers variants of B1. Put plainly: self-cleavage kobs at 2500 uM GlcN6P; higher = faster cleavage; RNA array. The gist of the method: as §1
Variants of B1 are the subject of data set [4]. Nature of the data set: self-cleavage kobs at 10000 uM GlcN6P; higher = faster cleavage; RNA array. The method, boiled down: as §1
In data set [5] the parent is B1. Nature of the data set: self-cleavage kobs at 160 uM GlcN6P; higher = faster cleavage; RNA array. The method, boiled down:
as §1

± gives the standard error. Variants at the floor of the assay were thinned out.

C61U U65C: in the data set with glucosamine-6-phosphate [1], the “self-cleavage kobs at 40 uM GlcN6P” value is less than 1e-05 s⁻¹. For the same variant, the “self-cleavage kobs at 640 uM GlcN6P” value with glucosamine-6-phosphate [2] was less than 1e-05 s⁻¹. For the same variant, the “self-cleavage kobs at 2500 uM GlcN6P” value with glucosamine-6-phosphate [3] was less than 1e-05 s⁻¹. The “self-cleavage kobs at 10000 uM GlcN6P” value in the data set with glucosamine-6-phosphate [4] is less than 1e-05 s⁻¹.

Turning to U45A C68A, in the data set with glucosamine-6-phosphate [1], the “self-cleavage kobs at 40 uM GlcN6P” value is less than 1e-05 s⁻¹. For the same variant, the “self-cleavage kobs at 160 uM GlcN6P” value with glucosamine-6-phosphate [5] was less than 1e-05 s⁻¹. Also, the “self-cleavage kobs at 640 uM GlcN6P” value with glucosamine-6-phosphate [2] was less than 1e-05 s⁻¹. The “self-cleavage kobs at 2500 uM GlcN6P” value with glucosamine-6-phosphate [3] turned out to be 3.91e-05 ± 1.9e-05 s⁻¹.

As for G13A G38U C50G A64G, the “self-cleavage kobs at 40 uM GlcN6P” value with glucosamine-6-phosphate [1] was determined as 6.47e-05 ± 2.4e-05 s⁻¹. In the data set with glucosamine-6-phosphate [2], the “self-cleavage kobs at 640 uM GlcN6P” value is 0.00011 ± 5.2e-05 s⁻¹.

Take G7A G40C: the “self-cleavage kobs at 40 uM GlcN6P” value with glucosamine-6-phosphate [1] was less than 1e-05 s⁻¹. In addition, the “self-cleavage kobs at 160 uM GlcN6P” value in the data set with glucosamine-6-phosphate [5] was less than 1e-05 s⁻¹. Besides, in the data set with glucosamine-6-phosphate [2], the “self-cleavage kobs at 640 uM GlcN6P” value was less than 1e-05 s⁻¹. Moreover, the “self-cleavage kobs at 2500 uM GlcN6P” value with glucosamine-6-phosphate [3] was less than 1e-05 s⁻¹.

Consider A12U A15G C71U, for which the “self-cleavage kobs at 40 uM GlcN6P” value with glucosamine-6-phosphate [1] came to 0.00147 ± 0.00036 s⁻¹.

Regarding C68A C70A, the “self-cleavage kobs at 40 uM GlcN6P” value in the data set with glucosamine-6-phosphate [1] was less than 1e-05 s⁻¹.

Turning to G9A C50G C70G, the “self-cleavage kobs at 40 uM GlcN6P” value with glucosamine-6-phosphate [1] was determined as 9.06e-05 ± 2.7e-05 s⁻¹. In the data set with glucosamine-6-phosphate [4], the “self-cleavage kobs at 10000 uM GlcN6P” value was 4.63e-05 ± 1.4e-05 s⁻¹.

Regarding A12U C16A A53U, in the data set with glucosamine-6-phosphate [1], the “self-cleavage kobs at 40 uM GlcN6P” value came out at 6.29e-05 ± 1.7e-05 s⁻¹. In addition, the “self-cleavage kobs at 640 uM GlcN6P” value with glucosamine-6-phosphate [2] is 0.000278 ± 8.9e-05 s⁻¹. For the same variant, the “self-cleavage kobs at 2500 uM GlcN6P” value in the data set with glucosamine-6-phosphate [3] came to 0.00138 ± 0.00059 s⁻¹.

As to C16G G51C U55A U65A, in the data set with glucosamine-6-phosphate [1], the “self-cleavage kobs at 40 uM GlcN6P” value was less than 1e-05 s⁻¹. Moreover, the “self-cleavage kobs at 2500 uM GlcN6P” value in the data set with glucosamine-6-phosphate [3] is less than 1e-05 s⁻¹. Also, in the data set with glucosamine-6-phosphate [4], the “self-cleavage kobs at 10000 uM GlcN6P” value is less than 1e-05 s⁻¹.

For C8A U45A, the “self-cleavage kobs at 40 uM GlcN6P” value in the data set with glucosamine-6-phosphate [1] was less than 1e-05 s⁻¹. The “self-cleavage kobs at 160 uM GlcN6P” value with glucosamine-6-phosphate [5] is less than 1e-05 s⁻¹. In addition, the “self-cleavage kobs at 640 uM GlcN6P” value in the data set with glucosamine-6-phosphate [2] was less than 1e-05 s⁻¹. In addition, in the data set with glucosamine-6-phosphate [3], the “self-cleavage kobs at 2500 uM GlcN6P” value was less than 1e-05 s⁻¹. The “self-cleavage kobs at 10000 uM GlcN6P” value in the data set with glucosamine-6-phosphate [4] was less than 1e-05 s⁻¹.

Turning to U56G U69C, in the data set with glucosamine-6-phosphate [1], the “self-cleavage kobs at 40 uM GlcN6P” value is 0.000126 ± 1.8e-05 s⁻¹. For the same variant, in the data set with glucosamine-6-phosphate [5], the “self-cleavage kobs at 160 uM GlcN6P” value stood at 0.000192 ± 6.9e-05 s⁻¹. In the data set with glucosamine-6-phosphate [2], the “self-cleavage kobs at 640 uM GlcN6P” value was found to be 0.000627 ± 0.00011 s⁻¹. For the same variant, the “self-cleavage kobs at 2500 uM GlcN6P” value with glucosamine-6-phosphate [3] came to 0.00118 ± 0.00041 s⁻¹. Besides, the “self-cleavage kobs at 10000 uM GlcN6P” value in the data set with glucosamine-6-phosphate [4] is 0.00475 ± 0.0011 s⁻¹.

Regarding G44A G59U C71A, in the data set with glucosamine-6-phosphate [1], the “self-cleavage kobs at 40 uM GlcN6P” value was less than 1e-05 s⁻¹. Besides, the “self-cleavage kobs at 160 uM GlcN6P” value with glucosamine-6-phosphate [5] is less than 1e-05 s⁻¹. Besides, the “self-cleavage kobs at 640 uM GlcN6P” value with glucosamine-6-phosphate [2] is less than 1e-05 s⁻¹. Further, the “self-cleavage kobs at 2500 uM GlcN6P” value with glucosamine-6-phosphate [3] is less than 1e-05 s⁻¹. Further, the “self-cleavage kobs at 10000 uM GlcN6P” value with glucosamine-6-phosphate [4] was less than 1e-05 s⁻¹.

On to A12U U46C G59A, for which, in the data set with glucosamine-6-phosphate [1], the “self-cleavage kobs at 40 uM GlcN6P” value was less than 1e-05 s⁻¹. Moreover, the “self-cleavage kobs at 10000 uM GlcN6P” value in the data set with glucosamine-6-phosphate [4] came out at 5.26e-05 ± 1.6e-05 s⁻¹.

With G35U G59A, the “self-cleavage kobs at 40 uM GlcN6P” value with glucosamine-6-phosphate [1] was less than 1e-05 s⁻¹. For the same variant, in the data set with glucosamine-6-phosphate [2], the “self-cleavage kobs at 640 uM GlcN6P” value was less than 1e-05 s⁻¹.

On to A33U G51U, for which the “self-cleavage kobs at 40 uM GlcN6P” value with glucosamine-6-phosphate [1] was less than 1e-05 s⁻¹. Besides, the “self-cleavage kobs at 160 uM GlcN6P” value with glucosamine-6-phosphate [5] was less than 1e-05 s⁻¹.

In the case of C16A U57G, the “self-cleavage kobs at 40 uM GlcN6P” value with glucosamine-6-phosphate [1] is less than 1e-05 s⁻¹.

Consider C50G G62A C68A, for which, in the data set with glucosamine-6-phosphate [1], the “self-cleavage kobs at 40 uM GlcN6P” value worked out at 6.73e-05 ± 1.6e-05 s⁻¹. Besides, the “self-cleavage kobs at 10000 uM GlcN6P” value in the data set with glucosamine-6-phosphate [4] amounted to 9.9e-05 ± 2.3e-05 s⁻¹.

For the variant A12U U45A C58G C71G, in the data set with glucosamine-6-phosphate [1], the “self-cleavage kobs at 40 uM GlcN6P” value is less than 1e-05 s⁻¹. Also, the “self-cleavage kobs at 2500 uM GlcN6P” value with glucosamine-6-phosphate [3] was 4.36e-05 ± 1.4e-05 s⁻¹. Moreover, the “self-cleavage kobs at 10000 uM GlcN6P” value with glucosamine-6-phosphate [4] turned out to be 3.15e-05 ± 1.5e-05 s⁻¹.

Regarding A36G C58U, the “self-cleavage kobs at 40 uM GlcN6P” value in the data set with glucosamine-6-phosphate [1] was less than 1e-05 s⁻¹. Besides, the “self-cleavage kobs at 640 uM GlcN6P” value with glucosamine-6-phosphate [2] is less than 1e-05 s⁻¹. In addition, the “self-cleavage kobs at 2500 uM GlcN6P” value in the data set with glucosamine-6-phosphate [3] was less than 1e-05 s⁻¹. Moreover, the “self-cleavage kobs at 10000 uM GlcN6P” value in the data set with glucosamine-6-phosphate [4] is less than 1e-05 s⁻¹.

With A14G C67A, the “self-cleavage kobs at 40 uM GlcN6P” value with glucosamine-6-phosphate [1] was determined as 0.000654 ± 7e-05 s⁻¹. In addition, the “self-cleavage kobs at 160 uM GlcN6P” value with glucosamine-6-phosphate [5] worked out at 0.00108 ± 0.00017 s⁻¹. Moreover, in the data set with glucosamine-6-phosphate [2], the “self-cleavage kobs at 640 uM GlcN6P” value was found to be 0.00492 ± 0.00077 s⁻¹. Also, in the data set with glucosamine-6-phosphate [3], the “self-cleavage kobs at 2500 uM GlcN6P” value was determined as 0.00642 ± 0.0014 s⁻¹. In addition, the “self-cleavage kobs at 10000 uM GlcN6P” value with glucosamine-6-phosphate [4] was 0.0413 ± 0.01 s⁻¹.

Take G41A C50U G59A: the “self-cleavage kobs at 40 uM GlcN6P” value in the data set with glucosamine-6-phosphate [1] is less than 1e-05 s⁻¹. The “self-cleavage kobs at 10000 uM GlcN6P” value with glucosamine-6-phosphate [4] is less than 1e-05 s⁻¹.

Turning to A15G A42G A53G, the “self-cleavage kobs at 40 uM GlcN6P” value with glucosamine-6-phosphate [1] amounted to 0.00166 ± 0.00034 s⁻¹. In addition, the “self-cleavage kobs at 640 uM GlcN6P” value with glucosamine-6-phosphate [2] is 0.00796 ± 0.003 s⁻¹.
